Assay in all cases: Michaelis–Menten kinetics of oxidation to fluorescent 7-hydroxy metabolite by recombinant CYP1A1
Assay type in all cases: biochemical, human
What all share (conditions): other: recombinant CYP1A1, 100 mM Tris-HCl pH 7.4, 37 °C, 95% confidence interval in brackets

Substrate in data set [1]: COc1cccc(-c2cc3cc(OC)ccc3oc2=O)c1
Here is the method:
(§1) Baculovirus-insect cell-expressed human CYP1A1, CYP1A2, CYP1B1, CYP2A6, CYP2B6, CYP2C8, CYP2C9, CYP2C19, CYP2D6, CYP2E1, CYP3A4, CYP3A5, and CYP3A7 were purchased from BD Biosciences Discovery Labware (Woburn, MA, USA) and used according to the manufacturer’s instructions.
(§2) The kinetic assays were carried out in 100 μL volume containing 100 mM Tris-HCl buffer pH 7.4, 0–40 μM coumarin derivative or 0–10 μM 7-ethoxyresorufin, 1–25 nM recombinant CYP or 0–0.1 g/L microsomal protein, and 20% NADPH regenerating system. Incubations took place at 37 °C in 96-multiwell plates; the fluorescence was measured with a Victor[2] plate reader (PerkinElmer Life Sciences, Turku, Finland). The detailed conditions are described in the figures and tables. The reaction was started by adding NADPH, and fluorescence was measured at 2 min intervals for 40 min using excitation at 405 nm and emission at 460 nm for oxidation of coumarin derivatives[18] and excitation at 570 nm and emission at 615 nm for ethoxyresorufin or pentoxyresorufin 7-O-dealkylations. Incubations without the substrate, enzyme, or NADPH were used as blank reactions. Resorufin was used as a standard, and 3-(4-fluorophenyl)-7-hydroxycoumarin was used as the surrogate standards to calculate the amount of product formed. The linear phase of the reactions was used for calculations.
(§3) Enzyme kinetic parameters were analyzed using the nonlinear Michaelis–Menten equation v = Vmax × S/(Km + S), in which v is the rate for 7-hydroxylation of a coumarin derivative, S is its concentration, and Vmax value is the limiting rate of the reaction of 7-hydroxylation, which reached a half-maximal rate at a concentration of Km for the substrate.

Substrate in data set [2]: CCOc1ccc2ccc(=O)oc2c1
On the procedure: as §1, §2, §3

Substrate in data set [3]: CC(=O)Oc1ccc(-c2cc3cc(Cl)ccc3oc2=O)cc1
Here is the method:
as §1, §2, §3

Substrate in data set [4]: CCCCCOc1ccc2nc3ccc(=O)cc-3oc2c1
On the procedure: as §1, §2, §3

Substrate in data set [5]: O=c1oc2ccc(O)cc2cc1-c1cccc(O)c1
Here is the method:
as §1, §2, §3

Substrate in data set [6]: COc1ccc(-c2cc3cc(OC(C)=O)ccc3oc2=O)cc1
Here is the method:
as §1, §2, §3

Substrate in data set [7]: COc1ccc2oc(=O)c(-c3ccc(O)c(F)c3)cc2c1
Here is the method:
as §1, §2, §3

Substrate in data set [8]: COc1ccc2cc(-c3ccc(OC(F)(F)F)cc3)c(=O)oc2c1
Here is the method: as §1, §2, §3

Substrate in data set [9]: CCOc1ccc2nc3ccc(=O)cc-3oc2c1
Here is the method: as §1, §2, §3

Substrate in data set [10]: COc1ccc2oc(=O)c(-c3ccc(OC(F)(F)F)cc3)cc2c1
Here is the method: as §1, §2, §3

Marks after values point to notes of the source that are not given here.

B1: human CYP1A1 (Homo sapiens) (protein)
chain: MLFPISMSATEFLLASVIFCLVFWVIRASRPQVPKGLKNPPGPWGWPLIGHMLTLGKNPHLALSRMSQQYGDVLQIRIGSTPVVVLSGLDTIRQALVRQGDDFKGRPDLYTFTLISNGQSMSFSPDSGPVWAARRRLAQNGLKSFSIASDPASSTSCYLEEHVSKEAEVLISTLQELMAGPGHFNPYRYVVVSVTNVICAICFGRRYDHNHQELLSLVNLNNNFGEVVGSGNPADFIPILRYLPNPSLNAFKDLNEKFYSFMQKMVKEHYKTFEKGHIRDITDSLIEHCQEKQLDENANVQLSDEKIINIVLDLFGAGFDTVTTAISWSLMYLVMNPRVQRKIQEELDTVIGRSRRPRLSDRSHLPYMEAFILETFRHSSFVPFTIPHSTTRDTSLKGFYIPKGRCVFVNQWQINHDQKLWVNPSEFLPERFLTPDGAIDKVLSEKVIIFGMGKRKCIGETIARWEVFLFLAILLQRVEFSVPLGVKVDMTPIYGLTMKHACCEHFQMQLRS
notes: purchased BD Biosciences Discovery Labware (Woburn, MA, USA); host or cells: baculovirus-insect cells
B1: the Km is 0.96 (0.4–1.52) μM in data set [1]; 11.9 (0–25.1) μM in data set [2]; 0.41 (0.26–0.55) μM in data set [3]; 0.74 (0.54–0.94) μM in [4]; 2.11 (0.17–4.1) μM in data set [5]; 1.04 (0.65–1.42) μM in [6]. Further, the Km is 10.7 (2.6–18.7) ^b μM in [7], 9.7 (4.8–14.6) μM in [8], 0.054 (0.035–0.075) μM in data set [9] and 4.8 (2.6–6.9) μM in data set [10]. For the same protein, the kcat in data set [1] is on record as 24.2 (19.4–29) mol/(min·mol CYP); in data set [2], 26.2 (14.5–38) mol/(min·mol CYP); in data set [3] it was 6.5 (5.9–7.1) mol/(min·mol CYP); in [4] it was 1.35 (1.19–1.50) mol/(min·mol CYP); in [5], 4.0 (3.0–5.0) mol/(min·mol CYP); in data set [6] it was 7.5 (7–8.1) mol/(min·mol CYP). Besides, the kcat in data set [7] is 32 (18–46) mol/(min·mol CYP); in [8], 4.2 (3.3–5.1) mol/(min·mol CYP); in [9], 10.3 (9.3–11.4) mol/(min·mol CYP); in data set [10] it was 12.6 (10.6–14.6) mol/(min·mol CYP).

Source of the values: PMC8153946, “Substrate Selectivity of Coumarin Derivatives by Human CYP1 Enzymes: In Vitro Enzyme Kinetics and In Silico Modeling” (ACS Omega, 2021).
